Laboratory results from patent publication US20190308168A1.

Legend:
Conditions in all cases: scale: mg Gammanorm/ml chromatography matrix(gel)
[1] = target: GAMMANORM 165 mg/ml (Octapharma no. 00 86 64), human normal immunoglobulin (human); assay: column dynamic binding capacity at 10% breakthrough, after 5 h accumulated in 0.5 M NaOH
[2] = target: GAMMANORM 165 mg/ml (Octapharma no. 00 86 64), human normal immunoglobulin (human); assay: column dynamic binding capacity at 10% breakthrough, after 10 h accumulated in 0.5 M NaOH
[3] = target: GAMMANORM 165 mg/ml (Octapharma no. 00 86 64), human normal immunoglobulin (human); assay: column dynamic binding capacity at 10% breakthrough, before NaOH incubation
[4] = target: GAMMANORM 165 mg/ml (Octapharma no. 00 86 64), human normal immunoglobulin (human); assay: column dynamic binding capacity at 10% breakthrough, after 20 h accumulated in 0.5 M NaOH
[5] = target: GAMMANORM 165 mg/ml (Octapharma no. 00 86 64), human normal immunoglobulin (human); assay: column dynamic binding capacity at 10% breakthrough, after 3 h accumulated in 0.5 M NaOH
[6] = target: GAMMANORM 165 mg/ml (Octapharma no. 00 86 64), human normal immunoglobulin (human); assay: column dynamic binding capacity at 10% breakthrough, after 15 h accumulated in 0.5 M NaOH
[7] = target: GAMMANORM 165 mg/ml (Octapharma no. 00 86 64), human normal immunoglobulin (human); assay: column dynamic binding capacity at 10% breakthrough, after 1 h accumulated in 0.5 M NaOH

Sequence	Capacity after 5 h [1]	Capacity after 10 h [2]	Capacity (Start Capacity 1) [3]	Capacity (Start Capacity 2) [3]	Capacity after 20 h [4]	Capacity after 3 h [5]	Capacity after 15 h [6]	Capacity after 1 h [7]
MABSELECT ligand (recombinant Protein A consisting of five homologous domains E, D, A, B, C), coupled to agarose particles (from UniProt P38507 37-327)	20.3	15.8	29	29	10.1	23.1	12.5	27
MABSELECT SURE ligand (four domains originating from the domain B analogue Z, stabilized against high pH by protein engineering), coupled to agarose particles (designed binder)	28.2	27.9	28.4	28.1	25.9	28.4	27	29.3
